Laboratory results from publication PMC3447402.

Target: acyl-carrier-protein synthase (AcpS) from Staphylococcus aureus (Staphylococcus aureus)
Assay: crystal structure

For “acyl-carrier-protein synthase (AcpS) from Staphylococcus aureus (enzyme)”, the stoichiometry N was 3.
